Results taken from PMC4586593 (The Journal of General Physiology, 2015).
Where “and” joins values, the source holds several entries; their conditions need not be identical. Equal values may be shown once.

Target: actin from chicken pectoralis muscle (F-actin, TRITC-phalloidin labelled) (chicken, UniProt P68139 1-377)
Assay: method of Cremo and Geeves

B1: smooth muscle myosin S1 head (domain or fragment)
chain 1: SQKPLSDDEKFLFVDKNFVNNPLAQADWSAKKLVWVPSEKHGFEAASIKEEKGDEVTVELQENGKKVTLSKDDIQKMNPPKFSKVEDMAELTCLNEASVLHNLRERYFSGLIYTYSGLFCVVINPYKQLPIYSEKIIDMYKGKKRHEMPPHIYAIADTAYRSMLQDREDQSILCTGESGAGKTENTKKVIQYLAVVASSHKGKKDTSITQGPSFSYGELEKQLLQANPILEAFGNAKTVKNDNSSRFGKFIRINFDVTGYIVGANIETYLLEKSRAIRQAKDERTFHIFYYLIAGASEQMRNDLLLEGFNNYTFLSNGHVPIPAQQDDEMFQETLEAMTIMGFTEEEQTSILRVVSSVLQLGNIVFKKERNTDQASMPDNTAAQKVCHLMGINVTDFTRSILTPRIKVGRDVVQKAQTKEQADFAIEALAKAKFERLFRWILTRVNKALDKTKRQGASFLGILDIAGFEIFEINSFEQLCINYTNEKLQQLFNHTMFILEQEEYQREGIEWNFIDFGLDLQPCIELIERPTNPPGVLALLDEECWFPKATDTSFVEKLIQEQGNHAKFQKSKQLKDKTEFCILHYAGKVTYNASAWLTKNMDPLNDNVTSLLNQSSDKFVADLWKDVDRIVGLDQMAKMTESSLPSASKTKKGMFRTVGQLYKEQLTKLMTTLRNTNPNFVRCIIPNHEKRAGKLDAHLVLEQLRCNGVLEGIRICRQGFPNRIVFQEFRQRYEILAANAIPKGFMDGKQACILMIKALELDPNLYRIGQSKIFFRTGVLAHLEEERDLKITDVIIAFQAQCRGYLARKAFAKRQQQLTAMKVIQRNCAAYLKLRNWQWWRLFTKVKP
chain 2: CDFSEEQTAEFKEAFQLFDRTGDGKILYSQCGDVMRALGQNPTNAEVMKVLGNPKSDEMNLKTLKFEQFLPMMQTIAKNKDQGCFEDYVEGLRVFDKEGNGTVMGAEIRHVLVTLGEKMTEEEVEQLVAGHEDSNGCINYEELVRMVLSG
chain 3: SSKRAKAKTTKKRPQRATSNVFAMFDQSQIQEFKEAFNMIDQNRDGFIDKEDLHDMLASMGKNPTDEYLEGMMSEAPGPINFTMFLTMFGEKLNGTDPEDVIRNAFACFDEEASGFIHEDHLRELLTTMGDRFTDEEVDEMYREAPIDKKGNFNYVEFTRILKHGAKDKDD
Kd: 15 nM and 25 nM
